Assay results taken from publication PMC5457524, “An engineered high affinity Fbs1 carbohydrate binding protein for selective capture of N-glycans and N-glycopeptides” (Nature Communications, 2017).
Positions count from the first letter of the chain named. In names and notes the source's numbering stands. No end group written: not given here. TMR = tetramethylrhodamine

T1: fetuin (UniProt P12763 19-359, sialylated complex N-linked glycans)
T1 construct: fetuin; Denatured by boiling in Rapid PNGase F buffer, or on Affi-Gel 15 beads with 6 M guanidine-HCl; also called sialylated fetuin; fetuin beads; source: bought: New England Biolabs; denatured before the assay
T1 sequence (looked up): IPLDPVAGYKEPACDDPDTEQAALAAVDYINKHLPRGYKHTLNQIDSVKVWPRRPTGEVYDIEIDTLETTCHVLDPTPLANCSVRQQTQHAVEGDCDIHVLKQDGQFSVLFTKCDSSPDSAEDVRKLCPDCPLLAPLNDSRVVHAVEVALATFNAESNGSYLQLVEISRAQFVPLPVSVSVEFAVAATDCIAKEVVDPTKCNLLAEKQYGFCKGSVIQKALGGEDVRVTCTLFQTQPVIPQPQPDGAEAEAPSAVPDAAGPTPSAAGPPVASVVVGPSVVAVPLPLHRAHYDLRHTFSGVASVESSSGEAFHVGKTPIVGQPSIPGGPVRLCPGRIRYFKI

T2: SNAP-Fbs1 fusion protein (wild-type human Fbs1 sugar-binding domain, residues 92-296) (human, UniProt Q9UK22 92-296)
T2 construct: Immobilised covalently through the SNAP tag on benzylguanine (BG) agarose beads in the bead assays; also called wt Fbs1; Fbs1 beads; source: NEB Express E. coli, purified (for Fbs1 beads and ITC); E. coli cell lysate (fetuin or RNase B bead pulldown); not shown: SNAP tag, N-terminal, kept
T2 sequence (looked up): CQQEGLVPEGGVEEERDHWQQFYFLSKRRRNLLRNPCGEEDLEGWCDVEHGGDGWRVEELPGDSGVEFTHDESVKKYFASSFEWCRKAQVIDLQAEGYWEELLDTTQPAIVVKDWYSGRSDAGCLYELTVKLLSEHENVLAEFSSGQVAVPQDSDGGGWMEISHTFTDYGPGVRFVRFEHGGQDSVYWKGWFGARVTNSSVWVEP

B1: SNAP-Fbs1 GYR variant (S155G, F173Y, E174R) (designed binder)
chain: T2 sequence (looked up) with S64G, F82Y, E83R
notes: numbered on the full-length human protein; source: E. coli, purified (for beads and N-glyco-FASP); E. coli cell lysate (fetuin bead pulldown); not shown: SNAP tag, N-terminal, kept
B2: SNAP-Fbs1 S155G mutant (domain or fragment, human, UniProt Q9UK22 92-296, looked up)
chain: T2 sequence (looked up) with S64G
notes: numbered on the full-length human protein; source: E. coli cell lysate; not shown: SNAP tag, N-terminal, kept
B3: SNAP-Fbs1 S155A mutant (domain or fragment, human, UniProt Q9UK22 92-296, looked up)
chain: T2 sequence (looked up) with S64A
notes: as for B2
B4: SNAP-Fbs1 PPRYR variant (combination of PPR and YR) (designed binder)
chain: T2 sequence (looked up) with D63P, S64P, G65R, F82Y, E83R
notes: numbered on the full-length human protein; source: E. coli, purified (for beads); E. coli cell lysate (fetuin bead pulldown); not shown: SNAP tag, N-terminal, kept
B5: SGP-TMR without sialic acids, galactose and GlcNAc (peptide)
peptide: K(TMR)VAN(N‑glycan pentasaccharide core)K(TMR)T
notes: peptide of SGP; also called glycopeptide 4; source: SGP-TMR trimmed with α2-3,6,8 Neuraminidase, β1-4 Galactosidase S and β-N-Acetylglucosaminidase S
B6: sialylglycopeptide (SGP) (peptide)
peptide: KVAN(bi‑antennary complex N‑glycan, terminal sialic acids)KT
notes: naturally occurring glycopeptide of six amino acids; source: bought: Fushimi Pharmaceutical Co., Ltd
B7: RNase B (natural protein, UniProt P61823 27-150, looked up)
chain: KETAAAKFERQHMDSSTSAASSSNYCNQMMKSRNLTKDRCKPVNTFVHESLADVQAVCSQKNVACKNGQTNCYQSYSTMSITDCRETGSSKYPNCAYKTTQANKHIIVACEGNPYVPVHFDASV
modifications: a single site modified by a variety of high-mannose N-glycans
notes: RNase B, the N-glycosylated form of pancreatic ribonuclease; Denatured by boiling (SDS/DTT or Rapid PNGase F buffer), or on Affi-Gel 10 beads with 6 M guanidine-HCl; source: bought: New England Biolabs; denatured before the assay
B8: SGP-TMR (SGP labelled with two TMR fluorophores on the lysines) (peptide)
peptide: K(TMR)VAN(bi‑antennary complex N‑glycan, terminal sialic acids)K(TMR)T
notes: peptide of SGP; also called glycopeptide 1
B9: SGP-TMR without sialic acids and galactose (peptide)
peptide: K(TMR)VANK(TMR)T
modifications: not fully specified (residue 4)
notes: peptide of SGP; also called glycopeptide 3; source: SGP-TMR trimmed with α2-3,6,8 Neuraminidase and β1-4 Galactosidase S

Columns and labels:
fetuin = biological target: T1, fetuin; experiment: pull-down; fetuin (Affi-Gel 15) or RNase B (Affi-Gel 10) beads, denatured with 6 M guanidine-HCl; E. coli cell lysate with wt or mutant SNAP-Fbs1; 20 mM Tris.HCl pH 7.5, 1 mM EDTA, 50 mM NaCl (low salt) or 2 M NaCl (high salt), 30% Protein-Free Blocking buffer; 4 °C, 1 h; SDS-PAGE, ImageJ; conditions: one partner purified
[1] = biological target: T2, SNAP-Fbs1 fusion protein (wild-type …); experiment: pull-down; wt or GYR SNAP-Fbs1 on BG beads; TMR-labelled glycopeptides; 4 °C, 1 h; bound amount from the TMR fluorescence left in the supernatant, given as recovery percentage; low salt (50 mM NaCl or 50 mM ammonium acetate pH 7.5) or high salt (2 M NaCl); conditions: both partners purified
[2] = biological target: B1; experiment: as above; conditions: both partners purified
[3] = biological target: B1; experiment: affinity purification with mass spectrometry; wt Fbs1 or Fbs1 GYR enrichment from a tryptic digest of RNase B spiked with SGP and SGP-TMR; low salt (50 mM ammonium acetate, pH7.5); LC-MS, SGP-TMR by fluorescence; conditions: both partners purified
[4] = biological target: T2, SNAP-Fbs1 fusion protein (wild-type …); experiment: ITC; 270 μM SGP injected into 27 μM SNAP-Fbs1; 20 mM Tris.HCl pH 7.5, 1 mM EDTA, 2 M NaCl (high salt); single site binding model; conditions: both partners purified
[5] = biological target: T2, SNAP-Fbs1 fusion protein (wild-type …); experiment: ITC; 270 μM SGP injected into 27 μM SNAP-Fbs1; 20 mM Tris.HCl pH 7.5, 1 mM EDTA, 50 mM NaCl (low salt); single site binding model; conditions: both partners purified
[6] = biological target: B1; experiment: pull-down; wt, GYR or PPRYR SNAP-Fbs1 on BG beads; mixture of denatured fetuin and RNase B; low salt (50 mM ammonium acetate pH 7.5 named for Fig. 4a); 4 °C, 1 h; SDS-PAGE; conditions: both partners purified

Row | Binder | fold change of the pulled-down amount against wt Fbs1 (fetuin) [fold] | binding result [2] | other results
1 | B1 | ≥ 3.5 |  | 
2 | B2 | 2 |  | 
3 | B3 | 1.5 |  | 
4 | B4 | ≥ 3.5 |  | 
5 | B5 |  | binds | fold improvement in recovery (against untrimmed SGP-TMR) [1]: ≥ 3 fold
6 | B6 |  |  | binding result [3]: binds; Kd [4]: 1.4 ± 0.04 µM; Kd [5]: 3 µM
7 | B7 |  |  | binding result [6]: binds
8 | B8 |  | binds | 
9 | B9 |  | binds | 
